Among the data in article PMC4690146 are CD36 surface expression on Mo (flow cytometry, percentage of CD36 positive cells) after bLF 100 μg/mL for 18 h (% CD36 positive cells) values, retold here.

The target in this experiment is CD36 (human (endogenous in primary monocytes)) (UniProt P16671).
Sequence of UniProt P16671 (P16671 whole entry): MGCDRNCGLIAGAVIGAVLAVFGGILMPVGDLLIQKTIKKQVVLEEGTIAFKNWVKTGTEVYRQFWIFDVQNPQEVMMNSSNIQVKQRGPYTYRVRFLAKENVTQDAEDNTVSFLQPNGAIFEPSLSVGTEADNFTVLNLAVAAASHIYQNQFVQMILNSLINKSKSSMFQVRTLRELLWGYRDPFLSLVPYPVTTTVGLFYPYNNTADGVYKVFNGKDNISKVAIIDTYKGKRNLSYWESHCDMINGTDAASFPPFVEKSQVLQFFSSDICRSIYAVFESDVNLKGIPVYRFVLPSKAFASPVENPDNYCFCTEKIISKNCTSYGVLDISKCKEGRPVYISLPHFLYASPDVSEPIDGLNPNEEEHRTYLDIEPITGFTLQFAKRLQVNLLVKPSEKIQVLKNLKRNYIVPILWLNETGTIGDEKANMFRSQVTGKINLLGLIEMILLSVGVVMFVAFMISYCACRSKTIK

The substance bovine lactoferrin (natural protein) yielded a CD36 surface expression on Mo (flow cytometry, percentage of CD36 positive cells) after bLF 100 μg/mL for 18 h (% CD36 positive cells) below 30.
